Measurements: patent US20240252534A1
pKd: −log10 of the molar value.

How the values were obtained:
[1] = target: Recombinant PSMA-His (sino biologicals) (UniProt Q04609); assay: SPR, Biacore T200, pH 6; antibody captured on Protein A chip, PSMA-His as analyte, 1:1 Langmuir fit
[2] = target: Recombinant PSMA-His (sino biologicals) (UniProt Q04609); assay: SPR, Biacore T200, pH 7.4; antibody captured on Protein A chip, PSMA-His as analyte, 1:1 Langmuir fit
[3] = target: Recombinant PSMA-His (sino biologicals) (UniProt Q04609); assay: SPR, Biacore T200, pH 6.5; antibody captured on Protein A chip, PSMA-His as analyte, 1:1 Langmuir fit
[4] = target: Recombinant PSMA-His (sino biologicals) (UniProt Q04609); assay: SPR, Biacore T200, pH 7; antibody captured on Protein A chip, PSMA-His as analyte, 1:1 Langmuir fit

Recombinant PSMA-His (sino biologicals), sequence (Q04609 44-750 limits assumed): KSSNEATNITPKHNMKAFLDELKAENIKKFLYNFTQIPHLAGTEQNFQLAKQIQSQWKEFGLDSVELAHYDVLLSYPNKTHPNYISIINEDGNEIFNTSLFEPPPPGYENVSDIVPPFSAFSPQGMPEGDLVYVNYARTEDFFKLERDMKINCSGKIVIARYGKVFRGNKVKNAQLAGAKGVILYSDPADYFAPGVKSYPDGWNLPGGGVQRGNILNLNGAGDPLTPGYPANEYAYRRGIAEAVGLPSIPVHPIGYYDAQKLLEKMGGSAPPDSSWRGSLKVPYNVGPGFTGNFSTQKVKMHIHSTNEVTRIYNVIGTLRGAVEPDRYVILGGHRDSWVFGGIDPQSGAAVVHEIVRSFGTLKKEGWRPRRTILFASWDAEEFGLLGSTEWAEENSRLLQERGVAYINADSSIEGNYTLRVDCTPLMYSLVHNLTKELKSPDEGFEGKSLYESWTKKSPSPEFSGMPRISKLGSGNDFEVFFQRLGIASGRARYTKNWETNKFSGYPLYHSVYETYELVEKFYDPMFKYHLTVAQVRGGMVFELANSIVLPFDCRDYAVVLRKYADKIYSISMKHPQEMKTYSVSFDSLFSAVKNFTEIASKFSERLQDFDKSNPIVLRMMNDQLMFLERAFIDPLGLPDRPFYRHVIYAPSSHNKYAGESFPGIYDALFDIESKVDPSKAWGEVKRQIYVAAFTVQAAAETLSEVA

Anti-PSMA antibody J591 (UPenn)
pKd [1]: 9.26
pKd [2]: 8.56
pKd [3]: 9.01
pKd [4]: 8.59
